Assay results taken from US20100260765A1.

Tests used:
[1] = molecular target: whole KDR-ECD (Cat. # 676490, Calbiochem) (human) (UniProt P35968); experiment: ELISA, KDR-ECD coat 5 ug/mL, antibody 0.01 ug/mL
[2] = molecular target: soluble KDR Ig4-7 domain (human) (UniProt P35968); experiment: ELISA, KDR Ig4-7 coat (1:1 diln.), antibody 1 ug/mL
[3] = molecular target: soluble KDR Ig4-7 domain (human) (UniProt P35968); experiment: ELISA, KDR Ig4-7 coat (1:1 diln.), antibody 0.1 ug/mL
[4] = molecular target: whole KDR-ECD (Cat. # 676490, Calbiochem) (human) (UniProt P35968); experiment: ELISA, KDR-ECD coat 5 ug/mL, antibody 1 ug/mL
[5] = molecular target: soluble KDR Ig4-7 domain (human) (UniProt P35968); experiment: ELISA, KDR Ig4-7 coat (1:1 diln.), antibody 0.01 ug/mL
[6] = molecular target: whole KDR-ECD (Cat. # 676490, Calbiochem) (human) (UniProt P35968); experiment: ELISA, KDR-ECD coat 5 ug/mL, antibody 0.1 ug/mL
[7] = molecular target: KDR (human) (UniProt P35968); experiment: cell-based or functional assay
KDR (human), sequence (P35968 20-1356): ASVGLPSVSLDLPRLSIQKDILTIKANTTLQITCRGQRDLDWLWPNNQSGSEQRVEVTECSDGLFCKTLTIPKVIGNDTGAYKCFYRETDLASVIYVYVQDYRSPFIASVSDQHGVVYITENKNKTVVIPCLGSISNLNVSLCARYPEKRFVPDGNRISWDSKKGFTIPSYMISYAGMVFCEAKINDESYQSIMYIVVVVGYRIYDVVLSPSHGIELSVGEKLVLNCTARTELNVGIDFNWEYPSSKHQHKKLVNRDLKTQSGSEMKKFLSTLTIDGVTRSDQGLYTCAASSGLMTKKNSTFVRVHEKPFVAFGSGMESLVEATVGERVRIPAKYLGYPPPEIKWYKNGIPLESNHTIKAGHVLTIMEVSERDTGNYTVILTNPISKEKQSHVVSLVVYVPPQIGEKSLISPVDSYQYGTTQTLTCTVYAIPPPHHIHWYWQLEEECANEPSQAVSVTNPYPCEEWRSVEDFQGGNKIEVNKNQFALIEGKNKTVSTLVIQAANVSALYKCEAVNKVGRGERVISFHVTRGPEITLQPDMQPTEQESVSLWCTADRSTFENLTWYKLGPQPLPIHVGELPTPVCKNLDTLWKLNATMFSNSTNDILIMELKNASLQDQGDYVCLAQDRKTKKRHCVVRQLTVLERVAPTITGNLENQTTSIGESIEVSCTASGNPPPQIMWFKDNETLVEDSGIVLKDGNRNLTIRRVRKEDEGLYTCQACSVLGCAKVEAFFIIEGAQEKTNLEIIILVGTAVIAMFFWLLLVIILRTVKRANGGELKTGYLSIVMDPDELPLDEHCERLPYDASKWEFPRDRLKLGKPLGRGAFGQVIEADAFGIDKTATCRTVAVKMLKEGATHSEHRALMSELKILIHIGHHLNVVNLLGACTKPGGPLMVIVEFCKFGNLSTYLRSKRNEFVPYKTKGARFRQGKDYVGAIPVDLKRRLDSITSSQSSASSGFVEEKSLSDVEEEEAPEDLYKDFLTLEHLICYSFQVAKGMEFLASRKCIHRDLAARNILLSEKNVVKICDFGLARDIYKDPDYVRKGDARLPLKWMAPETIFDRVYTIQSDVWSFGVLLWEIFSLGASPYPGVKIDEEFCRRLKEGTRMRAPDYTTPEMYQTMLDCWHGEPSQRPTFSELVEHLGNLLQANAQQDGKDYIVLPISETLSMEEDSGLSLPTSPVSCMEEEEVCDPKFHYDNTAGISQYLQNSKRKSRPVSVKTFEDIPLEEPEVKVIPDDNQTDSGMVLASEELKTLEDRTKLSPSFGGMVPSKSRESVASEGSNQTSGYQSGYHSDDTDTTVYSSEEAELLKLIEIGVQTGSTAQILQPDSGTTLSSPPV

[8] = molecular target: human KDR (VEGFR2) on cells (human) (UniProt P35968); experiment: FACS on HUVEC, control at 2 ug/mL
human KDR (VEGFR2) on cells (human), sequence (P35968 20-1356): as above

whole KDR-ECD (Cat. # 676490, Calbiochem) (human), sequence (P35968 20-764): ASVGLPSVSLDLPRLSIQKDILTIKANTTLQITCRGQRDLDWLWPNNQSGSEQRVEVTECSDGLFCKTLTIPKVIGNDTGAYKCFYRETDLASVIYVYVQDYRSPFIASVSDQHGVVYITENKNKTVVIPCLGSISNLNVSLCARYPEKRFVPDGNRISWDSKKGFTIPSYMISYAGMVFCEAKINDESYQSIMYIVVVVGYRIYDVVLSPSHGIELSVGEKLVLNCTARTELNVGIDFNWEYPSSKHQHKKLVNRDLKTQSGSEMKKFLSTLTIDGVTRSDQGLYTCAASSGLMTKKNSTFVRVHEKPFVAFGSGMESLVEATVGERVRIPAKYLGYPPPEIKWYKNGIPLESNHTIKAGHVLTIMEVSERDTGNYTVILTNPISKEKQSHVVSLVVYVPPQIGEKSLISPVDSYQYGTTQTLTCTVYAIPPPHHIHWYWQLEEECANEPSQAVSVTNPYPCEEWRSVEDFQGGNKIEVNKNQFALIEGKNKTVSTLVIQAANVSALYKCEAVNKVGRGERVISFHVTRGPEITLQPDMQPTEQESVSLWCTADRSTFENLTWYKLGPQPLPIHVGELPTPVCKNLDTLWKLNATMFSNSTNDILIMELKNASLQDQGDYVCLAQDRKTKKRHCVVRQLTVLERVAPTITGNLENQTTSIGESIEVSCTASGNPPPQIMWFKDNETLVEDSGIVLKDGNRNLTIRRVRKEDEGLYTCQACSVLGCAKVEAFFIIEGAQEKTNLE
soluble KDR Ig4-7 domain (human), sequence (P35968 328-764): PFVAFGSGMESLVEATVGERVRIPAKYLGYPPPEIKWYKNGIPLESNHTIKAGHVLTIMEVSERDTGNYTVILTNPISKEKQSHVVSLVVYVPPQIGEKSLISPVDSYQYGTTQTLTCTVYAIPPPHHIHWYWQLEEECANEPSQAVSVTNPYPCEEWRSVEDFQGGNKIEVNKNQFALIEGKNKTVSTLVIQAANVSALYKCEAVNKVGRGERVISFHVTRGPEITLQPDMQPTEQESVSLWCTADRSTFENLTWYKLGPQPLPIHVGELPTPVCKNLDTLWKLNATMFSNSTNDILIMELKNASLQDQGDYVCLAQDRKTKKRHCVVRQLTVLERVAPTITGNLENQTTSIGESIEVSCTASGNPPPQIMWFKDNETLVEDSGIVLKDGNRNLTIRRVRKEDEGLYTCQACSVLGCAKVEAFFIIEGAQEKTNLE

ELISA reading [1]	ELISA reading [2]	ELISA reading [3]	ELISA reading [4]	ELISA reading [5]	ELISA reading [6]	% of Max VEGF KDR pTyr Activity (at 133 nM antibody concentration), Average [7] [%]	% of Max VEGF KDR pTyr Activity (at 133 nM antibody concentration), N = 1 [7] [%]	% of Max VEGF KDR pTyr Activity (at 133 nM antibody concentration), N = 2 [7] [%]	FACS Geometric Mean [8]	Substance
						8	6	10		IgG4 (antibody)
									3.28	goat isotype control (antibody)

Further lines, the substance ahead of its results:

Substance	ELISA reading [1]	ELISA reading [2]	ELISA reading [3]	ELISA reading [4]	ELISA reading [5]	ELISA reading [6]	% of Max VEGF KDR pTyr Activity (at 133 nM antibody concentration), Average [7] [%]	% of Max VEGF KDR pTyr Activity (at 133 nM antibody concentration), N = 1 [7] [%]	% of Max VEGF KDR pTyr Activity (at 133 nM antibody concentration), N = 2 [7] [%]	FACS Geometric Mean [8]
IgG1 (Control) (Sigma-Aldrich, Cat. #15154) (antibody)	0.082	0.139	0.097	0.121	0.079	0.087				
IgG2 (antibody)							9	6	12	
IgG4 (Control) (Sigma-Aldrich, Cat. #14639) (antibody)	0.077	0.181	0.078	0.106	0.075	0.078				
